Test results published in article PMC12866175 (European journal of nuclear medicine and molecular imaging, 2021).

Test: Radiation dosimetry and clearance kinetics from biodistribution data
Assay type: in vivo, BALB/c mice

C[C@@H](O)[C@H](NC(=O)[C@@H]1CSSC[C@H](NC(=O)[C@@H](Cc2ccccc2)NC(=O)CN2CCN(CC(=O)O)CCN(CC(=O)O)CCN(CC(=O)O)CC2)C(=O)N[C@@H](Cc2ccc(O)cc2)C(=O)N[C@H](Cc2c[nH]c3ccccc23)C(=O)N[C@@H](CCCCN)C(=O)N[C@@H]([C@@H](C)O)C(=O)N1)C(=O)O [[^225Ac]Ac-DOTA-TATE, metal not drawn]
Absorbed dose/injected activity (^213Bi, Blood): 0.0000 Gy/kBq
Accumulated activity/organ, A~ (^213Bi, Blood): 0.2345 kBq×h
Decay rate constant, λeff (^213Bi, Blood): 0.011 h⁻¹
Initial activity/organ, A○ (^213Bi, Blood): 0.0042 kBq
Absorbed dose/injected activity (^213Bi, Bone): 0.0000 Gy/kBq
Accumulated activity/organ, A~ (^213Bi, Bone): 0.9591 kBq×h
Decay rate constant, λeff (^213Bi, Bone): 0.0070 h⁻¹
Initial activity/organ, A○ (^213Bi, Bone): 0.0125 kBq
Absorbed dose/injected activity (^213Bi, Brain): 0.0000 Gy/kBq
Accumulated activity/organ, A~ (^213Bi, Brain): 0.4653 kBq×h
Decay rate constant, λeff (^213Bi, Brain): 0.0080 h⁻¹
Initial activity/organ, A○ (^213Bi, Brain): 0.0066 kBq
Absorbed dose/injected activity (^213Bi, Heart): 0.0000 Gy/kBq
Accumulated activity/organ, A~ (^213Bi, Heart): 0.5789 kBq×h
Decay rate constant, λeff (^213Bi, Heart): 0.0030 h⁻¹
Initial activity/organ, A○ (^213Bi, Heart): 0.0053 kBq
Absorbed dose/injected activity (^213Bi, Intestine): 0.0000 Gy/kBq
Accumulated activity/organ, A~ (^213Bi, Intestine): 3.6681 kBq×h
Decay rate constant, λeff (^213Bi, Intestine): 0.0210 h⁻¹
Initial activity/organ, A○ (^213Bi, Intestine): 0.1340 kBq
Absorbed dose/injected activity (^213Bi, Kidney): 0.0000 Gy/kBq
Accumulated activity/organ, A~ (^213Bi, Kidney): 7.7700 kBq×h
Decay rate constant, λeff (^213Bi, Kidney): 0.0250 h⁻¹
Initial activity/organ, A○ (^213Bi, Kidney): 0.3639 kBq
Absorbed dose/injected activity (^213Bi, Liver): 0.0000 Gy/kBq
Accumulated activity/organ, A~ (^213Bi, Liver): 28.7854 kBq×h
Decay rate constant, λeff (^213Bi, Liver): -0.0073 h⁻¹
Initial activity/organ, A○ (^213Bi, Liver): 0.0948 kBq
Absorbed dose/injected activity (^213Bi, Lung): 0.0000 Gy/kBq
Accumulated activity/organ, A~ (^213Bi, Lung): 0.9636 kBq×h
Decay rate constant, λeff (^213Bi, Lung): 0.0170 h⁻¹
Initial activity/organ, A○ (^213Bi, Lung): 0.0270 kBq
Absorbed dose/injected activity (^213Bi, Muscle): 0.0000 Gy/kBq
Accumulated activity/organ, A~ (^213Bi, Muscle): 0.3058 kBq×h
Decay rate constant, λeff (^213Bi, Muscle): 0.0050 h⁻¹
Initial activity/organ, A○ (^213Bi, Muscle): 0.0034 kBq
Absorbed dose/injected activity (^213Bi, Pancreas): 0.0000 Gy/kBq
Accumulated activity/organ, A~ (^213Bi, Pancreas): 0.5253 kBq×h
Decay rate constant, λeff (^213Bi, Pancreas): 0.0140 h⁻¹
Initial activity/organ, A○ (^213Bi, Pancreas): 0.0119 kBq
Absorbed dose/injected activity (^213Bi, Salivary): 0.000 Gy/kBq
Accumulated activity/organ, A~ (^213Bi, Salivary): 0.6047 kBq×h
Decay rate constant, λeff (^213Bi, Salivary): 0.0030 h⁻¹
Initial activity/organ, A○ (^213Bi, Salivary): 0.0056 kBq
Absorbed dose/injected activity (^213Bi, Skin): 0.000 Gy/kBq
Accumulated activity/organ, A~ (^213Bi, Skin): 0.5575 kBq×h
Decay rate constant, λeff (^213Bi, Skin): 0.0040 h⁻¹
Initial activity/organ, A○ (^213Bi, Skin): 0.0056 kBq
Absorbed dose/injected activity (^213Bi, Spleen): 0.0000 Gy/kBq
Accumulated activity/organ, A~ (^213Bi, Spleen): 1.2470 kBq×h
Decay rate constant, λeff (^213Bi, Spleen): -0.0024 h⁻¹
Initial activity/organ, A○ (^213Bi, Spleen): 0.0068 kBq
Absorbed dose/injected activity (^213Bi, Stomach): 0.0000 Gy/kBq
Accumulated activity/organ, A~ (^213Bi, Stomach): 2.4230 kBq×h
Decay rate constant, λeff (^213Bi, Stomach): 0.0190 h⁻¹
Initial activity/organ, A○ (^213Bi, Stomach): 0.0777 kBq
Absorbed dose/injected activity (^213Po, Blood): 0.0000 Gy/kBq
Accumulated activity/organ, A~ (^213Po, Blood): 0.2345 kBq×h
Decay rate constant, λeff (^213Po, Blood): 0.0110 h⁻¹
Initial activity/organ, A○ (^213Po, Blood): 0.0042 kBq
Absorbed dose/injected activity (^213Po, Bone): 0.0004 Gy/kBq
Accumulated activity/organ, A~ (^213Po, Bone): 0.9591 kBq×h
Decay rate constant, λeff (^213Po, Bone): 0.0070 h⁻¹
Initial activity/organ, A○ (^213Po, Bone): 0.0125 kBq
Absorbed dose/injected activity (^213Po, Brain): 0.0001 Gy/kBq
Accumulated activity/organ, A~ (^213Po, Brain): 0.4653 kBq×h
Decay rate constant, λeff (^213Po, Brain): 0.0080 h⁻¹
Initial activity/organ, A○ (^213Po, Brain): 0.0066 kBq
Absorbed dose/injected activity (^213Po, Heart): 0.0002 Gy/kBq
Accumulated activity/organ, A~ (^213Po, Heart): 0.5789 kBq×h
Decay rate constant, λeff (^213Po, Heart): 0.0030 h⁻¹
Initial activity/organ, A○ (^213Po, Heart): 0.0053 kBq
Absorbed dose/injected activity (^213Po, Intestine): 0.0001 Gy/kBq
Accumulated activity/organ, A~ (^213Po, Intestine): 3.6681 kBq×h
Decay rate constant, λeff (^213Po, Intestine): 0.0210 h⁻¹
Initial activity/organ, A○ (^213Po, Intestine): 0.1340 kBq
Absorbed dose/injected activity (^213Po, Kidney): 0.0015 Gy/kBq
Accumulated activity/organ, A~ (^213Po, Kidney): 7.7700 kBq×h
Decay rate constant, λeff (^213Po, Kidney): 0.0250 h⁻¹
Initial activity/organ, A○ (^213Po, Kidney): 0.3639 kBq
Absorbed dose/injected activity (^213Po, Liver): 0.0016 Gy/kBq
Accumulated activity/organ, A~ (^213Po, Liver): 28.7854 kBq×h
Decay rate constant, λeff (^213Po, Liver): -0.0073 h⁻¹
Initial activity/organ, A○ (^213Po, Liver): 0.0948 kBq
Absorbed dose/injected activity (^213Po, Lung): 0.0002 Gy/kBq
Accumulated activity/organ, A~ (^213Po, Lung): 0.9636 kBq×h
Decay rate constant, λeff (^213Po, Lung): 0.0170 h⁻¹
Initial activity/organ, A○ (^213Po, Lung): 0.0270 kBq
Absorbed dose/injected activity (^213Po, Muscle): 0.0001 Gy/kBq
Accumulated activity/organ, A~ (^213Po, Muscle): 0.3058 kBq×h
Decay rate constant, λeff (^213Po, Muscle): 0.0050 h⁻¹
Initial activity/organ, A○ (^213Po, Muscle): 0.0034 kBq
Absorbed dose/injected activity (^213Po, Pancreas): 0.0002 Gy/kBq
Accumulated activity/organ, A~ (^213Po, Pancreas): 0.5253 kBq×h
Decay rate constant, λeff (^213Po, Pancreas): 0.0140 h⁻¹
Initial activity/organ, A○ (^213Po, Pancreas): 0.0119 kBq
Absorbed dose/injected activity (^213Po, Salivary): 0.0002 Gy/kBq
Accumulated activity/organ, A~ (^213Po, Salivary): 0.6047 kBq×h
Decay rate constant, λeff (^213Po, Salivary): 0.0030 h⁻¹
Initial activity/organ, A○ (^213Po, Salivary): 0.0056 kBq
Absorbed dose/injected activity (^213Po, Skin): 0.0001 Gy/kBq
Accumulated activity/organ, A~ (^213Po, Skin): 0.5575 kBq×h
Decay rate constant, λeff (^213Po, Skin): 0.0040 h⁻¹
Initial activity/organ, A○ (^213Po, Skin): 0.0056 kBq
Absorbed dose/injected activity (^213Po, Spleen): 0.0006 Gy/kBq
Accumulated activity/organ, A~ (^213Po, Spleen): 1.2470 kBq×h
Decay rate constant, λeff (^213Po, Spleen): -0.0024 h⁻¹
Initial activity/organ, A○ (^213Po, Spleen): 0.0068 kBq
Absorbed dose/injected activity (^213Po, Stomach): 0.0005 Gy/kBq
Accumulated activity/organ, A~ (^213Po, Stomach): 2.4230 kBq×h
Decay rate constant, λeff (^213Po, Stomach): 0.0190 h⁻¹
Initial activity/organ, A○ (^213Po, Stomach): 0.0777 kBq
Absorbed dose/injected activity (^217At, Blood): 0.001 Gy/kBq
Accumulated activity/organ, A~ (^217At, Blood): 0.5594 kBq×h
Initial activity/organ, A○ (^217At, Blood): 0.0019 kBq
Absorbed dose/injected activity (^217At, Bone): 0.0003 Gy/kBq
Accumulated activity/organ, A~ (^217At, Bone): 1.0195 kBq×h
Decay rate constant, λeff (^217At, Bone): 0.0100 h⁻¹
Initial activity/organ, A○ (^217At, Bone): 0.0170 kBq
Absorbed dose/injected activity (^217At, Brain): 0.0001 Gy/kBq
Accumulated activity/organ, A~ (^217At, Brain): 0.7934 kBq×h
Decay rate constant, λeff (^217At, Brain): -0.0044 h⁻¹
Initial activity/organ, A○ (^217At, Brain): 0.0036 kBq
Absorbed dose/injected activity (^217At, Heart): 0.00001 Gy/kBq
Accumulated activity/organ, A~ (^217At, Heart): 0.2102 kBq×h
Decay rate constant, λeff (^217At, Heart): 0.0190 h⁻¹
Initial activity/organ, A○ (^217At, Heart): 0.0067 kBq
Absorbed dose/injected activity (^217At, Intestine): 0.0002 Gy/kBq
Accumulated activity/organ, A~ (^217At, Intestine): 7.2991 kBq×h
Decay rate constant, λeff (^217At, Intestine): 0.0130 h⁻¹
Initial activity/organ, A○ (^217At, Intestine): 0.1532 kBq
Absorbed dose/injected activity (^217At, Kidney): 0.0021 Gy/kBq
Accumulated activity/organ, A~ (^217At, Kidney): 12.5136 kBq×h
Decay rate constant, λeff (^217At, Kidney): 0.0190 h⁻¹
Initial activity/organ, A○ (^217At, Kidney): 0.4011 kBq
Absorbed dose/injected activity (^217At, Liver): 0.0016 Gy/kBq
Accumulated activity/organ, A~ (^217At, Liver): 32.1637 kBq×h
Decay rate constant, λeff (^217At, Liver): -0.0033 h⁻¹
Initial activity/organ, A○ (^217At, Liver): 0.1612 kBq
Accumulated activity/organ, A~ (^217At, Lung): 1.7734 kBq×h
Decay rate constant, λeff (^217At, Lung): 0.0080 h⁻¹
Initial activity/organ, A○ (^217At, Lung): 0.251 kBq
Absorbed dose/injected activity (^217At, Muscle): 0.00000 Gy/kBq
Accumulated activity/organ, A~ (^217At, Muscle): 0.1848 kBq×h
Decay rate constant, λeff (^217At, Muscle): 0.0170 h⁻¹
